Measurements: PMC5523967, “Dimerized Domain V of Beta2-Glycoprotein I Is Sufficient to Upregulate Procoagulant Activity in PMA-Treated U937 Monocytes and Require Intact Residues in Two Phospholipid-Binding Loops” (Antibodies, 2017)
Residue numbers refer to the chain shown, from its start.

What was measured:
Assay in all cases: ITC; A1 (500 μM) in the injection syringe titrated in 2 μL increments into HA-DV or HA-DV variant (50 μM) in the sample cell; 298 K; 25 mM Hepes pH 7.1, 50 mM NaCl, 2 mM CaCl2; one site binding model
Settings in all cases: both partners purified
[1] = target: T1, HA-tagged domain V of human β2GPI (HA-DV), wild type (human, UniProt P02749 263-345)
T1 construct: beta2-glycoprotein I (β2GPI), human, domain V, residues 244-326; also called wild type HA-DV; β2GPI-DV; source: expressed from a pET15b vector and purified as previously described [34]; not shown: HA, N-terminal, kept
T1 sequence (looked up): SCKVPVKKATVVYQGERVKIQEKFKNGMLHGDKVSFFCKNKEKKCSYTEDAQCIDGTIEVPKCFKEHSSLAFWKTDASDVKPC

[2] = target: T2, HA-DV Leu313/Asp_Phe315/Ser (human, UniProt P02749 263-345, Leu313/Asp | Phe315/Ser)
T2 construct: beta2-glycoprotein I (β2GPI), human, domain V, residues 244-326, Leu313 to Asp and Phe315 to Ser; Double mutant of m2; source: expressed from a pET15b vector and purified as previously described [34]; not shown: HA, N-terminal, kept
T2 sequence (looked up): T1 sequence (looked up) with L70D, F72S

HA-DV Lys282/Arg = target: T3, HA-DV Lys282/Arg (human, UniProt P02749 263-345, Lys282/Arg)
T3 construct: beta2-glycoprotein I (β2GPI), human, domain V, residues 244-326, Lys282 to Arg; Point mutant of m2; also called Lys282/Arg variant of HA-DV; source: expressed from a pET15b vector and purified as previously described [34]; not shown: HA, N-terminal, kept
T3 sequence (looked up): T1 sequence (looked up) with K39R

HA-DV Lys308/Arg = target: T4, HA-DV Lys308/Arg (human, UniProt P02749 263-345, Lys308/Arg)
T4 construct: beta2-glycoprotein I (β2GPI), human, domain V, residues 244-326, Lys308 to Arg; Point mutant of m2; also called Lys308/Arg variant of HA-DV; source: expressed from a pET15b vector and purified as previously described [34]; not shown: HA, N-terminal, kept
T4 sequence (looked up): T1 sequence (looked up) with K65R

HA-DV Leu313/Asn = target: T5, HA-DV Leu313/Asn (human, UniProt P02749 263-345, Leu313/Asn)
T5 construct: beta2-glycoprotein I (β2GPI), human, domain V, residues 244-326, Leu313 to Asn; Point mutant of m2; also called Leu313/Asn variant of HA-DV; source: expressed from a pET15b vector and purified as previously described [34]; not shown: HA, N-terminal, kept
T5 sequence (looked up): T1 sequence (looked up) with L70N

Measured: binding result

B1: A1, fragment of mouse ApoER2 (residues 12-47) in which Asp is substituted for Asn36 (domain or fragment)
chain: not shown
notes: source: Escherichia coli, purified as previously described [64]
binds: all assays above
